Two molecules from patent CN101663321A can be followed below.

What all share (experiment): dot blot: serial dilutions of hLIGHT spotted on PVDF, probed with 5 μg/ml antibody
Assay [1] concerns the target denatured soluble hLIGHT (boiled in 2x SDS sample buffer) (human) (UniProt O43557).
Assay [2] addresses soluble FLAG-tagged recombinant hLIGHT (Gly66-Val240 with N-terminal FLAG), native form (human) (UniProt O43557).
Assay [3] deals with denatured soluble hLIGHT (boiled in 2x SDS sample buffer) (human) (UniProt O43557). The source holds these as a separate data set.

Where two headings read alike, the source gives them in different places.

B1: E63 antibody (produced by hybridoma 124E63, ATCC PTA-7818) (antibody, V domains shown)
VH: QVQLQESGPGLVKPSETLSLTCIVSGGSVSSGGYYWSWIRQPPGKGLEWIGYIYYSGSTNYNPSLKSRVTISVDTSKNQFSLKLSSVTAADTAVYYCARWITMFRGVGFDPWGQGTLVTVSS
VL: EIVLTQSPDFQSVTPKEKVTITCRASQSIGSSLHWYQQKPDQSPKLLIKYASQSFSGVPSRFSGSGSGTDFTLTINSLEAEDAAAYYCHQSSSLPLTFGGGTKVEIK
Take B1: the lowest detection limit (dot blot) worked out at 139 ng in assay [1] and 3.9 ng in assay [2].

B2: F19 antibody (produced by hybridoma 124F19, ATCC PTA-7819) (antibody, human IgG1, V domains shown)
VH: QVQLQQWGAGLLKPSETLSLTCAVYGGSFSGYNWHWIRQPPGKGLEWIGEITHSGSTNYNPSLKSRVTISVDTSKNQFSLKLSSVTAADTAVYYCVREIAVAGTGYYGMDVWGQGTTVTVSS
VL: AIQLTQSPSSLSASVGDRVTITCRASRGINSAFAWYQQKPGKAPKLLIYDASSLESGVPSRFSGSGSGTDFTLTISSLQPEDFATYYCQQFNSYPLTFGGGTKVEIK
B2: the figures for the lowest detection limit (dot blot) in assay [2] and in assay [3] were 23 ng and over 5000 ng, respectively.
